Here are results for two molecules from publication PMC3257258, “Characterization of a Novel Association between Two Trypanosome-Specific Proteins and 5S rRNA”.

In data set [1] the target is T1, P37 (Trypanosoma brucei, UniProt O15759 1-279).
T1 sequence: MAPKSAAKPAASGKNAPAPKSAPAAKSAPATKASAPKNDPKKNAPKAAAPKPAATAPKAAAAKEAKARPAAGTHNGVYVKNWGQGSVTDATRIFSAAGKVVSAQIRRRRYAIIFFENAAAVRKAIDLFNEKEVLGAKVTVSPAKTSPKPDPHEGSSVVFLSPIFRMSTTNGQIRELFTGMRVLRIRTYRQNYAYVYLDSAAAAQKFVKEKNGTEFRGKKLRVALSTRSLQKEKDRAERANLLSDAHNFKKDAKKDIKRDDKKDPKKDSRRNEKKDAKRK
Kind of data set: competition; competes 5S rRNA at 100-1000 ng, somewhat better than for P34; Filter binding: 10 mM Tris pH 7.4, 1 mM EDTA, 100 mM NaCl, 0.1% NP-40, 100 ug/mL BSA, RT 20 min; EMSA/competition/RNase H protection: 10 mM Tris-HCl pH 7.4, 150 mM KCl, 0.1 mM DTT, 0.1 mM EDTA, 0.1% NP-40, RT 20 min. The note with it: protein: recombinant; tags: His (pQE-1); hairpin. (In general: Mobility shift assays separate free from complexed probe on a gel.)

In data set [2] the target is T2, P34 (Trypanosoma brucei, UniProt O15758 1-262).
T2 sequence: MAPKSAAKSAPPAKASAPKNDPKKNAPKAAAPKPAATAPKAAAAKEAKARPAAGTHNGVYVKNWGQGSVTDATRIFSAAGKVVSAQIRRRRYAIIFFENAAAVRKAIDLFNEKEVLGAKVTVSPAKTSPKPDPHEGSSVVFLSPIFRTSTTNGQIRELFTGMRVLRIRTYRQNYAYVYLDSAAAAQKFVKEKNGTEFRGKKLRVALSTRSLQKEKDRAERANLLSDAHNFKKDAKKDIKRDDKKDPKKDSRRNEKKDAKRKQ
Kind of data set: competition; competes 5S rRNA at 100-1000 ng; Filter binding: 10 mM Tris pH 7.4, 1 mM EDTA, 100 mM NaCl, 0.1% NP-40, 100 ug/mL BSA, RT 20 min; EMSA/competition/RNase H protection: 10 mM Tris-HCl pH 7.4, 150 mM KCl, 0.1 mM DTT, 0.1 mM EDTA, 0.1% NP-40, RT 20 min. The note with it: protein: recombinant; tags: His (pQE-1); hairpin.

Data set [3] has as its target T2, P34. Kind of data set: filter binding; no significant difference from wild type (one text sentence says P37; legend and assay say P34); Filter binding: 10 mM Tris pH 7.4, 1 mM EDTA, 100 mM NaCl, 0.1% NP-40, 100 ug/mL BSA, RT 20 min; EMSA/competition/RNase H protection: 10 mM Tris-HCl pH 7.4, 150 mM KCl, 0.1 mM DTT, 0.1 mM EDTA, 0.1% NP-40, RT 20 min. The note with it: protein: recombinant; tags: His (pQE-1); label: 32P-UTP (body).

Data set [4] has as its target T1, P37. Kind of data set: filter binding; similar to wild type, data not shown; Filter binding: 10 mM Tris pH 7.4, 1 mM EDTA, 100 mM NaCl, 0.1% NP-40, 100 ug/mL BSA, RT 20 min; EMSA/competition/RNase H protection: 10 mM Tris-HCl pH 7.4, 150 mM KCl, 0.1 mM DTT, 0.1 mM EDTA, 0.1% NP-40, RT 20 min. The note with it: protein: recombinant; tags: His (pQE-1); label: 32P-UTP (body).

B1: LoopA/StemV (structured_RNA)
RNA: GCGGGGUGCCAUACUUACAGGCCUCGC
On to B1, for which the binding result in the data set with P37 [1] and with P34 [2] was “binds” each time.

B2: 5S rRNA deltaU (U43A) (structured_RNA)
RNA: GGGUACGACCAUACUUGGCCGAAUGCACCAUAUCCCGUCCGAAUUGUGAAGUUAAGCGGCCACAGGCCUCGUUAGUACGGCGAUCAGUGAUGGCGCUGGAACCCGGGGUGUUGUACUCU
On to B2, for which the binding result in the data set with P34 [3] and with P37 [4] was “binds” each time.
